Data set [1] deals with cartilage cells. Conditions: intra-articular administration, Nakazawa et al. 2002; cited from earlier work.
The subject of data set [2] is rat FR-β-expressing B300-19. Description: Flow cytometry reactivity of antibody with FR-β-expressing B300-19 cells. Conditions: 1×10^5 cells, APC-labeled anti-mouse IgM. The format is binding. On the procedure: The resultant hybridomas were cloned by limiting dilution culture adjusted to 1 cell per well of a 96-well plate. The cloned cells were sorted by reactivity with FR-β-expressing cells. The isotype of the mouse monoclonal antibodies was determined using a mouse immunoglobulin isotyping ELISA kit (Pharmingen). As a result, the mouse anti-rat FR-β monoclonal antibodies obtained were IgM-type clone 4A67. The reactivity of these antibodies to the antigen was analyzed by flow cytometry.
(§1) After the end of reaction, stainability was measured using a flow cytometer. […], 3% thioglycolate was intraperitoneally administered to Lewis rats, and peritoneal macrophages were collected 4 days later. The negative control antibody or the 4A67 antibody was added to the macrophages adjusted to 1×10^5 for the same reaction as above, followed by further adding an anti-CD11b/c antibody labeled with phycoerythrin or the negative control antibody labeled with phycoerythrin for reaction. After the reaction, stainability was measured using a flow cytometer.
(In general: In flow cytometry, cells or beads pass a laser one at a time.)

The subject of data set [3] is thioglycolate-induced peritoneal macrophages. Description: Flow cytometry reactivity of antibody with peritoneal macrophages. The format is binding, Lewis rats. Conditions: Lewis rat peritoneal macrophages, co-stained anti-CD11b/c. On the procedure: as §1

In the case of `C[C@H]1C[C@@H]2[C@H]([C@@H](O)C[C@@]3(C)[C@H]2CC[C@]3(O)C(=O)CO)[C@@]2(C)C=CC(=O)C=C12` [Steroid, methylprednisolone], the “apoptotic death of cartilage cells” value in data set [1] was “causes the apoptotic death of cartilage cells”.

B1: 4A67: IgM-type mouse anti-rat FR-β monoclonal antibody (antibody, V domains shown)
VH: QIQLVQSGPELKKPGETVKISCKASGYTFTNYGMNWVKQAPGKGLKWMGWINTYTGEPTYTDDFKGRFAFSLETSASTAYLQINNLKNEDMATYFCARKGAMDYWGQGTSVTVSS
VL: QIVLTQSPAIMSASPGEKVTMTCSASSSVSYMHWYQQKSGTSPKRWIYDTSKLASGVPARFSGSGSGTSYSLTISSMEAEDAATYYCQQWSSNPPTFGSGTKLEIK
On to B1, for which the “reactivity with rat FR-β-expressing B300-19” value in data set [2] was “reacts”. Also, in data set [3], the “reactivity with thioglycolate-induced peritoneal macrophages” value is listed as “reacts”.

(Values after patent publication US20140242073A1, “CARTILAGE/BONE DESTRUCTION SUPPRESSOR” (priority 2011, published 2014).)
